For 1 substance, Kd, koff and kon results are on record in paper PMC9816786.

The assay addresses Human PCSK9 (full length), 6xHis-tagged, purified (human) (UniProt Q8NBP7). The assay is described as follows: BLI; biotinylated PCSK9 or biotinylated CHRD immobilised (0.2 μg/ml), CAP1 in solution, pH 7.5, association and dissociation 600 s. On the technique in general: In BLI a coated tip is dipped into the sample, and binding shifts an interference pattern.

Chain of Human CAP1 (cyclase associated protein 1), 6xHis-tagged, purified (Q01518 whole entry): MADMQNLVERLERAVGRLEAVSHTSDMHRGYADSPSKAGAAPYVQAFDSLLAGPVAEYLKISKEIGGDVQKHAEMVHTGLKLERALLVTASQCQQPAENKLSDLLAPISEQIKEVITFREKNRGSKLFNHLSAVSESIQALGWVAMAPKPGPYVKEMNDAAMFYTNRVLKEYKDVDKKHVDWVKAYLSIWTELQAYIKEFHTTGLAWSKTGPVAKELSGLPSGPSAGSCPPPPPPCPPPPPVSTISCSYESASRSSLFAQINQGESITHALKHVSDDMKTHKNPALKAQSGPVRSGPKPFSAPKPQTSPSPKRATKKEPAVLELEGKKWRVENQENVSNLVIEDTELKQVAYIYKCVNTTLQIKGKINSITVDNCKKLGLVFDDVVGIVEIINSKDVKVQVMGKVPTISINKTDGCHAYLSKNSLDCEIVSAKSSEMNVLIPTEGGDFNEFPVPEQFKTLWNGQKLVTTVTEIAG

“Human CAP1 (cyclase associated protein 1), 6xHis-tagged, purified (from UniProt Q01518 1-475) (natural protein)” returned a Kd of 1.36 µM, an off-rate (koff) of 0.00094 s⁻¹ and a kon of 690 M⁻¹ s⁻¹.

As usually defined, the Kd is the equilibrium constant for the complex coming apart. A low value points to tighter binding. The koff is a measure of how fast the partners let go of each other. Read a high koff as a short-lived complex. As a reminder, the kon is the rate constant with which the complex forms. A lower kon goes with slow association.
